Where “and” joins values, the source holds several entries; their conditions need not be identical. Identical values can stand only once.
Target: the molecule itself
Assay: crystal structure

B1: N-terminal lipid-binding domain of Mycobacterium tuberculosis Wag31 (residues 2-60) (domain or fragment)
chain: PLTPADVHNVAFSKPPIGKRGYNEDEVDAFLDLVENELTRLIEENSDLRQRINELDQEL
notes: Assembly states reported: parallel coiled-coil dimer (asymmetric unit), tetramer ('dimer-of-dimers'); also called N-Wag31; N-terminal Wag31
Question: With B1 as the protein, how does the “stoichiometry N” value read?
Answer: 2 and 4
